The target of the assay is epidermal growth factor (EGF) receptor expressed in 32D mouse myeloid cells (32D/EGFR) (UniProt P00533).

EC50 of AR for IL3-independent proliferation of 32D/EGFR cells, without EGF data for one molecule are collected here from paper PMC3962550.

B1: amphiregulin (ligand)
chain: SVRVEQVVKPPQNKTESENTSDKPKRKKKGGKNGKNRRNRKKKNPCNAEFQNFCIHGECKYIEHLEAVTCKCQQEYFGERCGEKSMK
Consider B1, for which the EC50 of AR for IL3-independent proliferation of 32D/EGFR cells, without EGF came to 8.3 nM.
